These results are taken from paper PMC4390766.

Read-outs that look alike come from different tables or passages of the source.

For experiment [1], the target named is β-catenin (UniProt P35222). The following applies: cited from earlier work.
Experiment [2] concerns the target β-catenin (UniProt P35222). Particulars: cited from earlier work. The source holds these as a separate data set.
For experiment [3], the target named is HMP-2_(54arm) (C. elegans) (UniProt O44326). Kind of experiment: ITC. (In general: Isothermal titration calorimetry measures the heat released or taken up as one component is titrated into another.)
The target in experiment [4] is HMP-2_(54end) (C. elegans) (UniProt O44326). Kind of experiment: ITC.

UniProt P35222, sequence (P35222 2-781): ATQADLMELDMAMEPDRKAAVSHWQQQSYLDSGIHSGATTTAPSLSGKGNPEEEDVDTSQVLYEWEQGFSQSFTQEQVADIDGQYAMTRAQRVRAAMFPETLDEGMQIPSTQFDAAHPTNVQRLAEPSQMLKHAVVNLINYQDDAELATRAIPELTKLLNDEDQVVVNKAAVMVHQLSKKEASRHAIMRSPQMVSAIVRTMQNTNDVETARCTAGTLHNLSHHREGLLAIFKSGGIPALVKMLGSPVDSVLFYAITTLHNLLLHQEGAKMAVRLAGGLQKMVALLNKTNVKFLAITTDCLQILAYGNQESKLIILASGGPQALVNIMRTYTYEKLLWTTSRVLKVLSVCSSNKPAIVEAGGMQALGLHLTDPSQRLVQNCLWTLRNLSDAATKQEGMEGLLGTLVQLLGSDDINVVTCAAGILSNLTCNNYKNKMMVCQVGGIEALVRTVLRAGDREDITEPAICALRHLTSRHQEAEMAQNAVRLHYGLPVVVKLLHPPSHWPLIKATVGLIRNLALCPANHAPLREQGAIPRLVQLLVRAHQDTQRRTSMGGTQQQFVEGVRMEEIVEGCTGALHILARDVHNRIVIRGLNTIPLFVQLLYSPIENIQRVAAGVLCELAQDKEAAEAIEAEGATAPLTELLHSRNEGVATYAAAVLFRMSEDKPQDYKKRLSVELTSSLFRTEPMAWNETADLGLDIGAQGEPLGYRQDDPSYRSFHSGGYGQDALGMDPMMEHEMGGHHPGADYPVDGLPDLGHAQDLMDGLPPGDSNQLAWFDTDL

A word on the Kd: it is the free concentration of one partner at which half of the binding sites on the other are occupied at equilibrium, for simple one-to-one binding. With “E-cadherin cytoplasmic domain (from UniProt P12830)”, the dissociation constant Kd with β-catenin [1] is 46 nM; with β-catenin [2], 0.052 nM.
Take “HMR-1(T1215A)_(cyto80), non-phosphorylated (domain or fragment)”: the equilibrium dissociation constant (Kd) in experiment [3] amounted to 610 nM.
The same measure, in the same setting: as for HMR-1_(cyto80) (domain or fragment), the figure is 380 nM; as for “pHMR-1(T1215A)_(cyto80) (domain or fragment)”, 26 nM.
With pHMR-1_(cyto80) (domain or fragment), the dissociation constant (Kd) worked out at 23 nM in experiment [4] and 3.1 nM in experiment [3].
